Source: US20080220446A1, “Method for Detecting and/or Removing Protein and/or Peptide Comprising a Cross-Beta Structure From an Aqueous Solution Comprising a Protein” (priority 2005, published 2008)

Legend:
Fn F4-5 = target: T1, Fn F4-5 (Homo sapiens, UniProt P02751); experiment: Biacore surface plasmon resonance, binding to immobilized Fn F4-5
T1 construct: amino-acids NH2—I182-V276-COOH of Fn F4-5; made in house; host or cells: Saccharomyces cerevisiae
Procedure: Binding of cross-β structure containing peptides/proteins was studied using surface plasmon resonance technology with a Biacore 2000 apparatus (Biacore AB, Uppsala, Sweden). A standardized amine coupling procedure was used to couple proteins with F domains to a CM5 chip (Biacore AB, Uppsala, Sweden). First, the dextran surface of the chips was activated by a 35 μl injection with a 1:1 mixture of 0.1 M N-hydroxysuccinimide (NHS) and 0.4 M N-ethyl-N′-(dimethylaminopropyl)carbodiimide (EDC) at a flow rate of 5 μl min.^−1. Then, the proteins were covalently coupled to the activated dextran surface. Remaining activated groups in each of the four flow channels were blocked by injection of 35 μl of 1 M ethanolamine hydrochloride pH 8.5. EDC, NHS and ethanolamine hydrochloride were obtained from Biacore. On one chip, on channels 1 to 4, buffer (reference channel), the soluble extracellular part of receptor for advanced glycation endproducts (sRAGE), tPA and K2P-tPA were immobilized. […] Binding of albumin-AGE was determined with a solution of 3.9 μg ml^−1 albumin-AGE in running buffer. albumin-AGE was filtered on a Millex-GV 0.22 μm filter unit (Millipore). […] Binding of Hb-AGE was also tested after centrifugation for 10 min. at 16,000*g alternative to filtration. tPA activation before and after filtration was assessed with a Plg-activation assay. […]

tPA = tPA (Homo sapiens, UniProt P00750); experiment: ELISA, binding of β2GPI to immobilized tPA
Procedure: Binding of purified human factor XII from plasma (Calbiochem) or of purified recombinant human tPA to β2GPI purified from human plasma, or to recombinant human β2GPI was tested in an ELISA. Ten μg of factor XII or tPA in PBS was coated onto wells of a Costar 2595 ELISA plate (Cambridge, USA) and incubated with concentration series of the two β2GPI preparations. Binding of β2GPI was assessed with monoclonal antibody 2B2^22.

T1 sequence (P02751 182-276): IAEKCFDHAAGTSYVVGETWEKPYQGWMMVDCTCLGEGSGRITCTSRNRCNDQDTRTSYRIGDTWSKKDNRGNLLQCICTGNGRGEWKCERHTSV
Sequence of tPA (P00750 36-562): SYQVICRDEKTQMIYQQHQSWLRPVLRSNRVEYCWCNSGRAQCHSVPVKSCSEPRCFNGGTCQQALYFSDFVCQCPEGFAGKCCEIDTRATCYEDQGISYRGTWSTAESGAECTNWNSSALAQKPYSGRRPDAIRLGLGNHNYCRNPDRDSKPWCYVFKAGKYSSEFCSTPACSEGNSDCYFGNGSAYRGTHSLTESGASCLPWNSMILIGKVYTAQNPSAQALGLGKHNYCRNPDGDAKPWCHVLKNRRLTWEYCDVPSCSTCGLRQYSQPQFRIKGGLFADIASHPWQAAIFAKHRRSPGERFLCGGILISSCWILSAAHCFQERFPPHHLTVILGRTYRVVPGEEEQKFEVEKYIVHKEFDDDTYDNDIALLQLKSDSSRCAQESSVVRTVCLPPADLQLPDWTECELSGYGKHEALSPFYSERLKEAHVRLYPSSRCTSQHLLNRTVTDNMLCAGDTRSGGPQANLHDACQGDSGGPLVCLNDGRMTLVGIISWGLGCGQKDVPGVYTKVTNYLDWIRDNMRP

binding to the Fn F4-5 doublet (Fn F4-5; Biacore, native Hb at 25 nM): bound | Kd (Fn F4-5; immobilized Fn F4-5, Biacore CM5 chip, read-out: concentration of ligand that results in half maximum binding to Fn F4-5): 165 nM | binding to tPA (tPA): bind
B1: recombinant β2GPI: recombinant human β2-glycoprotein I made using insect cells (protein)
chain: GRTCPKPDDLPFSTVVPLKTFYEPGEEITYSCKPGYVSRGGMRKFICPLTGLWPINTLKCTPRVCPFAGILENGAVRYTTFEYPNTISFSCNTGFYLNGADSAKCTEEGKWSPELPVCAPIICPPPSIPTFATLRVYKPSAGNNSLYRDTAVFECLPQHAMFGNDTITCTTHGNWTKLPECREVKCPFPSRPDNGFVNYPAKPTLYYKDKATFGCHDGYSLDGPEEIECTKLGNWSAMPSCKASCKVPVKKATVVYQGERVKIQEKFKNGMLHGDKVSFFCKNKEKKCSYTEDAQCIDGTIEVPKCFKEHSSLAFWKTDASDVKPC
